According to patent publication US6458927B1, “Polypeptide with appetite regulating activity” (Novo Nordisk A/S, priority 1997, dated 2002):

Tested on: Mice
Assay: Test method for measuring appetite suppression in mice (milk consumption after ICV injection)
Assay type: in vivo
Conditions: for % Feeding Suppression: food deprived, milk consumption over 10 minutes, 30 min after injection, percent reduction relative to control mean
Experimental: Mice were deprived of their normal feed for two days and given free access to a solution of nutritionally complete infant formula milk (Complan®) for the first day, after which food deprivation was complete for the last day before testing. After one day of food deprivation, mice were injected intra-cerebroventricularly (ICV) in the lateral ventricle with 10 microliters of a solution containing the test substance. Thirty minutes after injection, mice were individually placed in a 15×15×15 cm test box with a stainless steel grid floor and a glass drinking tube which projected into the box. The drinking tube was connected to a reservoir containing the formula milk solution, and the interior of the drinking tube contained an electrode enabling the detection of drinking contacts with the solution by measuring the flow of a weak (unnoticeable) electric current through mice by means of an electronic apparatus connected to the drinking tube electrode and the stainless steel grid floor. Consumption of the milk solution was measured over a 10 minutes period by electronically recording the total amount of contact with the milk solution during the test session. The degree of appetite suppression produced by a given test substance was determined by statistical comparison of the duration of milk consumption by control (vehicle treated) mice with that of mice treated with a test substance. The degree of appetite suppression in a treated group of mice was expressed as percent reduction of consumption relative to the mean of the control group's response.

B1: Ala-Leu-Asp-Ile-Tyr-Ser-Ala-Val-Asp-Asp-Ala-Ser-His-Glu-Lys-Glu-Leu-Ile- Glu-Ala-Leu-Gln-Glu-Val-Leu-Lys-Lys-Leu-Lys-Ser-Lys-Arg-Ile-Pro-Ile-Tyr- … (protein)
chain: ALDIYSAVDDASHEKELIEALQEVLKKLKSKRIPIYEKKYGQVPMCDAGEQCAVRKGARIGKLCDCPRGTSCNSFLLKCL
notes: recombinant rat CART fragment 10-89 from FXa digest of thioredoxin-CART fusion (E. coli)
ICV dose 1 microgram
  % Feeding Suppression: 41%
ICV dose 2 micrograms
  % Feeding Suppression: 70%
ICV dose 5 micrograms
  % Feeding Suppression: 71%
ICV dose 10 micrograms
  % Feeding Suppression: 59%
ICV dose 20 micrograms
  % Feeding Suppression: 78%
intra-cerebroventricular injection in phosphate buffered saline, over the dose range tested for the substance
  suppression of milk consumption (statistical significance, in words): statistically significant suppression of milk consumption
